This note sets out measurements from US20120039908A1.

Chain of RAGE-Fc fusion protein from bioreactor R79 (Ex Cell 325 PF CHO, 2-deoxy-D-glucose 1 g/L at day 7; 9), Day 12 (chain): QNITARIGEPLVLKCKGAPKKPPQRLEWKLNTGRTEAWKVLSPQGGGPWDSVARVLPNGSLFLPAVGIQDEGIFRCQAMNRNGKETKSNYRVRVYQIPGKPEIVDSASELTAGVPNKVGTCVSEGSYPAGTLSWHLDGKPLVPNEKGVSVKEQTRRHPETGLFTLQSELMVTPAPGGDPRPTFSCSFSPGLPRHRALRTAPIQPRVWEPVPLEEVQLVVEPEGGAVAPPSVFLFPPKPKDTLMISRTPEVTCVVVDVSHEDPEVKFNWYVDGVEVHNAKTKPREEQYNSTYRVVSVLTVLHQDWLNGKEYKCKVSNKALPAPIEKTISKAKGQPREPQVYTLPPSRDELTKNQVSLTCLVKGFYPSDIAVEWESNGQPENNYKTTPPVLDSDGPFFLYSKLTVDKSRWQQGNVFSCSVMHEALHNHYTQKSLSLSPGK
Chain of RAGE-Fc fusion protein from bioreactor R66 (CD OptiCHO lipid-free, 2-deoxy-D-glucose 1 g/L at day 9), Day 12 (chain): as above
Chain of RAGE-Fc fusion protein from bioreactor R80 (CD CHO, 2-deoxy-D-glucose 1 g/L at day 7; 9), Day 14 (chain): as above
Chain of RAGE-Fc fusion protein from bioreactor R53 (2-deoxy-D-glucose 1 g/L at day 9; 11), Day 10 (chain): as above
Chain of RAGE-Fc fusion protein from bioreactor R66 (CD OptiCHO lipid-free, 2-deoxy-D-glucose 1 g/L at day 9), Day 14 (chain): as above
Chain of RAGE-Fc fusion protein from bioreactor R39 (control, no 2-deoxy-D-glucose), Day 12 (chain): as above
Chain of RAGE-Fc fusion protein from bioreactor R79 (Ex Cell 325 PF CHO, 2-deoxy-D-glucose 1 g/L at day 7; 9), Day 13 (chain): as above
Chain of RAGE-Fc fusion protein from bioreactor R53 (2-deoxy-D-glucose 1 g/L at day 9; 11), Day 12 (chain): as above
Chain of RAGE-Fc fusion protein from bioreactor R80 (CD CHO, 2-deoxy-D-glucose 1 g/L at day 7; 9), Day 12 (chain): as above

In the assay the target is T1, S100b protein (Cat. No. 559290, Calbiochem).
T1 sequence (P04271 2-92, species assumed, looked up): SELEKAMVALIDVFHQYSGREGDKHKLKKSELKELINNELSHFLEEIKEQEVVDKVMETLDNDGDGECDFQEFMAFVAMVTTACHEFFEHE
Description: ELISA, S100b coated on plate; reference baseline bioreactor R39. (In general: An ELISA detects its analyte on a solid surface through an enzyme-linked reagent.)
Consider “RAGE-Fc fusion protein from bioreactor R39 (control, no 2-deoxy-D-glucose), Day 12”, for which the Relative binding compared to control amounted to 100%.
The same measure, in the same setting: in the case of “RAGE-Fc fusion protein from bioreactor R53 (2-deoxy-D-glucose 1 g/L at day 9; 11), Day 10” it was 296%.
As to “RAGE-Fc fusion protein from bioreactor R53 (2-deoxy-D-glucose 1 g/L at day 9; 11), Day 12”, the Relative binding compared to control came out at 1520%.
The substance “RAGE-Fc fusion protein from bioreactor R66 (CD OptiCHO lipid-free, 2-deoxy-D-glucose 1 g/L at day 9), Day 12” gave a Relative binding compared to control of 3250% and a fold increase in S100b binding activity compared to baseline bioreactor R39 of 32 fold.
“RAGE-Fc fusion protein from bioreactor R66 (CD OptiCHO lipid-free, 2-deoxy-D-glucose 1 g/L at day 9), Day 14” came in with a Relative binding compared to control of 3520%.
Substance “RAGE-Fc fusion protein from bioreactor R79 (Ex Cell 325 PF CHO, 2-deoxy-D-glucose 1 g/L at day 7; 9), Day 12” showed a Relative binding compared to control of 527% and a fold increase in S100b binding activity compared to baseline bioreactor R39 of 5 fold.
In the case of “RAGE-Fc fusion protein from bioreactor R79 (Ex Cell 325 PF CHO, 2-deoxy-D-glucose 1 g/L at day 7; 9), Day 13”, the Relative binding compared to control came out at 2960%.
Turning to “RAGE-Fc fusion protein from bioreactor R80 (CD CHO, 2-deoxy-D-glucose 1 g/L at day 7; 9), Day 12”, the Relative binding compared to control came out at 1630%.
For “RAGE-Fc fusion protein from bioreactor R80 (CD CHO, 2-deoxy-D-glucose 1 g/L at day 7; 9), Day 14”, the Relative binding compared to control came to 8080% and the fold S100b binding activity compared to control bioreactor R39 turned out to be 80 fold.
